Like-named read-outs stand apart in the source and are kept apart here.
Key:
[1] = target: T1, HSV-1 DNA polymerase catalytic subunit UL30 (exonuclease proficient) (Herpes simplex virus 1, UniProt P04293 1-1235); experiment: competition
[2] = target: T1, HSV-1 DNA polymerase catalytic subunit …; experiment: competition; remark: listed apart in the source

T1 sequence (P04293 whole entry): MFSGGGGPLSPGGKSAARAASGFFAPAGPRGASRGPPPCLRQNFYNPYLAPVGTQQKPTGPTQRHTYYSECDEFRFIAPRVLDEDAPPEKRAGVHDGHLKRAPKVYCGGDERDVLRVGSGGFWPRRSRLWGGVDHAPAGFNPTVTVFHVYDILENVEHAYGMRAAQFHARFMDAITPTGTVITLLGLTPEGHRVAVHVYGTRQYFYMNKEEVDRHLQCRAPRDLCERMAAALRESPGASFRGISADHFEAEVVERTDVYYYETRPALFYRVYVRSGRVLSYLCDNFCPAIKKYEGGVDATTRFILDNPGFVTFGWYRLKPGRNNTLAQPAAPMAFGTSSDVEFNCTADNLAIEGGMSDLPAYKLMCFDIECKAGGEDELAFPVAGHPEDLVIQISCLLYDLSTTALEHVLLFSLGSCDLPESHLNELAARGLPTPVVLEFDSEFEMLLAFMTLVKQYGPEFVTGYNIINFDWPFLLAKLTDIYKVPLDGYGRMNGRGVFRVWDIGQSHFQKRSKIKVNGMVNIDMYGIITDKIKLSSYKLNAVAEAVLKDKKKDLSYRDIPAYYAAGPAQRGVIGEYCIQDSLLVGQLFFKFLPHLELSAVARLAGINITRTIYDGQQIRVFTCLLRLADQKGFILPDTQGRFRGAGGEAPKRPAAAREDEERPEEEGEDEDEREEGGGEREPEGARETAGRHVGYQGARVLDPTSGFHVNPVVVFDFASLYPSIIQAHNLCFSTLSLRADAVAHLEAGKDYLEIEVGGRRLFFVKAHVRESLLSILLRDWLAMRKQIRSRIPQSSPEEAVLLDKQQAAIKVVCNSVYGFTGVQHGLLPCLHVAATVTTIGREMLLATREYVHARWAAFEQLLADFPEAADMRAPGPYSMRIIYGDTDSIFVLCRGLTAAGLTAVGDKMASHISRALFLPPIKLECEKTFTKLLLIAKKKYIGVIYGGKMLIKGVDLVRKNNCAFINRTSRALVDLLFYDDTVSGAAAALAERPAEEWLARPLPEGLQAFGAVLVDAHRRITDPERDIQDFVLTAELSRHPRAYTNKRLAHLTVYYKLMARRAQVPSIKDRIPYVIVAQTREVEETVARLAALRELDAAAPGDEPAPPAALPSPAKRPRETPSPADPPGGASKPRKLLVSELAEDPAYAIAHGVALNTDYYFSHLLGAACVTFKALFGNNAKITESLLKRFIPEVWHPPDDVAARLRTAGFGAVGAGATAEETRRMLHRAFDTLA

Binder	binding result [1]	binding result [2]
DNA16ACV (dsDNA, acyclovir monophosphate (acyclic G) at 3' end of primer, position 16 (printed A*)) DNA 1: GCTCTGTTCCGGTTTG DNA 2: CATGATTAGATGAAACACAAACCGGAACAGAGC	binds	
GCTCTGTTCCGGTTTG (ssDNA, 2',3'-dideoxyG at 3' end, position 16 (printed D*)) [DNA16ddss]		binds
DNA16GCV (dsDNA, ganciclovir monophosphate (acyclic G) at 3' end of primer, position 16 (printed G*)) DNA 1: GCTCTGTTCCGGTTTG DNA 2: CATGATTAGATGAAACACAAACCGGAACAGAGC	binds	
DNA16dd (dsDNA, 2',3'-dideoxyG at 3' end of primer, position 16 (printed D*)) DNA 1: GCTCTGTTCCGGTTTG DNA 2: CATGATTAGATGAAACACAAACCGGAACAGAGC	binds	
GCTCTGTTCCGGTTTG (ssDNA, acyclovir monophosphate (acyclic G) at 3' end, position 16 (printed A*)) [DNA16ACVss]		binds

— PMC5551684
